{"source": "patent US20190381086", "biological_target": "Ubc12^N8 made with wild type Ubc12 (thioester-linked to NEDD8), purified, P61081", "sequence (P61081 whole entry, looked up)": "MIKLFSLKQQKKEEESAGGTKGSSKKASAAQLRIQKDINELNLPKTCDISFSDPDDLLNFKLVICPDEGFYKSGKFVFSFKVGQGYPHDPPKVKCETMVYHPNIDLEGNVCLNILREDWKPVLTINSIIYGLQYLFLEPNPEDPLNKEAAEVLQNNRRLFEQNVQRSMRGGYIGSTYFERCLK"}
{"protein": "full-length human GlyRS (protein) MDGAGAEEVLAPLRLAVRQQGDLVRKLKEDKAPQVDVDKAVAELKARKRVLEAKELALQPKDDIVDRAKMEDTLKRRFFYDQAFAIYGGVSGLYDFGPVGCALKNNIIQTWRQHFIQEEQILEIDCTMLTPEPVLKTSGHVDKFADFMVKDVKNGECFRADHLLKAHLQKLMSDKKCSVEKKSEMESVLAQLDNYGQQELADLFVNYNVKSPITGNDLSPPVSFNLMFKTFIGPGGNMPGYLRPETAQGIFLNFKRLLEFNQGKLPFAAAQIGNSFRNEISPRSGLIRVREFTMAEIEHFVDPSEKDHPKFQNVADLHLYLYSAKAQVSGQSARKMRLGDAVEQGVINNTVLGYFIGRIYLYLTKVGISPDKLRFRQHMENEMAHYACDCWDAESKTSYGWIEIVGCADRSCYDLSCHARATKVPLVAEKPLKEPKTVNVVQFEPSKGAIGKAYKKDAKLVMEYLAICDECYITEMEMLLNEKGEFTIETEGKTFQLTKDMINVKRFQKTLYVEEVVPNVIEPSFGLGRIMYTVFEHTFHVREGDEQRTFFSFPAVVAPFKCSVLPLSQNQEFMPFVKELSEALTRHGVSHKVDDSSGSIGRRYARTDEIGVAFGVTIDFDTVNKTPHTATLRDRDSMRQIRAEISELPSIVQDLANGNITWADVEARYPLFEGQETGKKETIEE", "values": [{"measurement": "stability (half-life) of Ubc12^N8 in vitro at 37°, SDS-PAGE", "value": "In the presence of GlyRS, but not BSA, Ubc12^N8 was significantly more stable than in the absence of GlyRS"}]}
